Measured values reported in patent US7410949.

Key:
Test in all cases: cell-based or functional assay
Y1R = target: Y1R
Y4R = target: Y4R
[1] = target: T1, human NPY2 receptor (human) (UniProt P49146)
T1 sequence (looked up): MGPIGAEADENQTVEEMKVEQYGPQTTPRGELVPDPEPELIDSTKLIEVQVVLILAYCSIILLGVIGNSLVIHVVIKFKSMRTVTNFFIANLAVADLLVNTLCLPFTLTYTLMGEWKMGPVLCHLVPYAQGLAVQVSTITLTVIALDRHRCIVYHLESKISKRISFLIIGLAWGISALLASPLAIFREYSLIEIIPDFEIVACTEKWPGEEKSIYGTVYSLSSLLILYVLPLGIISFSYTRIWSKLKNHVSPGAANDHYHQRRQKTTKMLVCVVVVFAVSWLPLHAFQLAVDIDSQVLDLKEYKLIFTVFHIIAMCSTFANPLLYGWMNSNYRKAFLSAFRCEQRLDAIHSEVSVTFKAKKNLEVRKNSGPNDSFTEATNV

Sequence of Y1R (P25929 whole entry): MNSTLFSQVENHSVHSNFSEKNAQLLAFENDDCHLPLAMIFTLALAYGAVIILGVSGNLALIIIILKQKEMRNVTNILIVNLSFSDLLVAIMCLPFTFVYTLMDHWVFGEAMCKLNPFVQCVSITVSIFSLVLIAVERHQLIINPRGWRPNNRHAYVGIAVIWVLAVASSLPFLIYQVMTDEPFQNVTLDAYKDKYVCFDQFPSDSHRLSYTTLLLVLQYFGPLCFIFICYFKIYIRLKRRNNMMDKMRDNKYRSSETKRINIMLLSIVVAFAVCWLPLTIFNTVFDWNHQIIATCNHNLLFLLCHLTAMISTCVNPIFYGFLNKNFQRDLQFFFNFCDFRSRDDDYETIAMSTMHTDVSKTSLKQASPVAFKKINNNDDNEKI

Substance	Y1R EC50(nM) FLIPR (Y1R) [nM]	Y4R EC50(nM) FLIPR (Y4R) [nM]	Y2R EC50(nM) FLIPR [1] [nM]	Y2R IC50(nM) cAMP [1] [nM]
Ac-Acp-Nle-Pqa-Arg-His-Tyr-Leu-Asn-Leu-Val-Thr-Arg-Gln-Arg-Tyr-NH2 (peptide)	> 5000	> 5000	–	–
Ac-Aib-Nle-Pqa-Arg-His-Tyr-Leu-Asn-Leu-Val-Thr-Arg-Gln-Arg-Tyr-NH2 (peptide)	–	> 5000	–	–
Ac-2,2-Aic-Nle-Pqa-Arg-His-Tyr-Leu-Asn-Leu-Val-Thr-Arg-Gln-Arg-Tyr-NH2 (peptide)	> 5000	> 5000	–	–

Other lines, results leading:

Y1R EC50(nM) FLIPR (Y1R) [nM]	Y4R EC50(nM) FLIPR (Y4R) [nM]	Y2R EC50(nM) FLIPR [1] [nM]	Y2R IC50(nM) cAMP [1] [nM]	Substance
> 5000	> 5000	–	–	Ac-Ach-Nle-Pqa-Arg-His-Tyr-Leu-Asn-Leu-Val-Thr-Arg-Gln-Arg-Tyr-NH2 (peptide)
1650	> 5000	8.8	0.64	Ac-1,1-Aic-Nle-Pqa-Arg-His-Tyr-Leu-Asn-Leu-Val-Thr-Arg-Gln-Arg-Tyr-NH2 (Pk A) (peptide)
2650	> 5000	6	1	Ac-1,1-Aic-Nle-Pqa-Arg-His-Tyr-Leu-Asn-Leu-Val-Thr-Arg-Gln-Arg-Tyr-NH2 (Pk B) (peptide)
